Biological target: T1, human CD3 epsilon on human CD3 epsilon-expressing Ba/F3 cells (human, UniProt P07766 23-207)
T1 construct: The Ba/F3 transfectant is not itself tied to that entry; also called CD3/BaF; CD3 epsilon chain
Experiment: flow cytometry on human CD3 epsilon-expressing Ba/F3 cells, FITC-labeled secondary antibody, calibration curve
Protocol: After washing these cells, an FITC-labeled secondary antibody was added for further reaction. After washing the cells, the fluorescent intensity of the label on the cells was measured using Epics XL flow cytometer (Beckman coulter) to prepare a calibration curve for each antibody.
Plasma was prepared from the blood and diluted appropriately. […] The plasma concentration of each antibody was calculated using determined values and the calibration curves described above.

T1 sequence (P07766 23-207 limits assumed): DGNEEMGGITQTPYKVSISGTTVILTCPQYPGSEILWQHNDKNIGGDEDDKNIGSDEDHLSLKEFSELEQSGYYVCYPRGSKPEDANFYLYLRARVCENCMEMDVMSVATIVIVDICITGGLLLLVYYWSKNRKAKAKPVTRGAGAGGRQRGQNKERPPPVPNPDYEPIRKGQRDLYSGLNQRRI

B1: GPC3 ERY9-1 (bispecific antibody, human IgG1, kappa, L234A L235A, N297A)
heavy: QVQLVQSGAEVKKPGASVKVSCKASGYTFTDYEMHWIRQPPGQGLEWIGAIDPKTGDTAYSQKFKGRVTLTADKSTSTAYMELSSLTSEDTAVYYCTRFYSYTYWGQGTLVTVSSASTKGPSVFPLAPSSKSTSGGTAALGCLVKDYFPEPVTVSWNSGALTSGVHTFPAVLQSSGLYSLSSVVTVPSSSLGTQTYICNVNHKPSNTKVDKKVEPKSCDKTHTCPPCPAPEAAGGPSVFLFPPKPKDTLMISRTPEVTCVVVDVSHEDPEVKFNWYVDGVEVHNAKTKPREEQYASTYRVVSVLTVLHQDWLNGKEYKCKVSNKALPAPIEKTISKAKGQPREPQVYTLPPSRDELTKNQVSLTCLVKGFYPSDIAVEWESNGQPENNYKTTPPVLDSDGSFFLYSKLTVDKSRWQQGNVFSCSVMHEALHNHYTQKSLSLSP
light 1: DIVMTQSPLSLPVTPGEPASISCRSSQSLVHSNRNTYLHWYQQKPGQAPRLLIYKVSNRFSGVPDRFSGSGSGTDFTLKISRVEAEDVGVYYCSQNTHVPPTFGQGTKLEIKRTVAAPSVFIFPPSDEQLKSGTASVVCLLNNFYPREAKVQWKVDNALQSGNSQESVTEQDSKDSTYSLSSTLTLSKADYEKHKVYACEVTHQGLSSPVTKSFNRGECHHHHHHHH
light 2: DIVMTQSPLSLPVTPGEPASISCRSSQSLVHSNRNTYLHWYQQKPGQAPRLLIYKVSNRFSGVPDRFSGSGSGTDFTLKISRVEAEDVGVYYCSQNTHVPPTFGQGTKLEIKRTVAAPSVFIFPPSDEQLKSGTASVVCLLNNFYPREAKVQWKVDNALQSGNSQESVTEQDSKDSTYSLSSTLTLSKADYEKHKVYACEVTHQGLSSPVTKSFNRGECGGGGSGGGGSQAVVTQESALTTSPGETVTLTCRSSTGAVTTSNYANWVQEKPDHLFTGLIGGTNKRAPGVPARFSGSLIGDKAALTITGAQTEDEAIYFCALWYSNLWVFGGGTKLTVLGGGGSGGGGSGGGGSEVKLLESGGGLVQPKGSLKLSCAASGFTFNTYAMNWVRQAPGKGLEWVARIRSKYNNYATYYADSVKDRFTISRDDSQSILYLQMNNLKTEDTAMYYCVRHGNFGNSYVSWFAYWGQGTLVTVSADYKDDDDK
notes: Anti-GPC3 IgG backbone with silent Fc
  binding result: binds

B2: GPC3 ERY10-1 (bispecific antibody, human IgG1, kappa, L234A L235A, N297A)
heavy 1: QVQLVQSGAEVKKPGASVKVSCKASGYTFTDYEMHWIRQPPGQGLEWIGAIDPKTGDTAYSQKFKGRVTLTADKSTSTAYMELSSLTSEDTAVYYCTRFYSYTYWGQGTLVTVSSASTKGPSVFPLAPSSKSTSGGTAALGCLVKDYFPEPVTVSWNSGALTSGVHTFPAVLQSSGLYSLSSVVTVPSSSLGTQTYICNVNHKPSNTKVDKKVEPKSCDKTHTCPPCPAPEAAGGPSVFLFPPKPKDTLMISRTPEVTCVVVDVSHEDPEVKFNWYVDGVEVHNAKTKPREEQYASTYRVVSVLTVLHQDWLNGKEYKCKVSNKALPAPIEKTISKAKGQPREPQVYTLPPSRCELTKNQVSLSCAVKGFYPSDIAVEWESNGQPENNYKTTPPVLDSDGSFFLVSKLTVDKSRWQQGNVFSCSVMHEALHNHYTQKSLSLSPGGGGSGGGGSQAVVTQESALTTSPGETVTLTCRSSTGAVTTSNYANWVQEKPDHLFTGLIGGTNKRAPGVPARFSGSLIGDKAALTITGAQTEDEAIYFCALWYSNLWVFGGGTKLTVLGGGGSGGGGSGGGGSEVKLLESGGGLVQPKGSLKLSCAASGFTFNTYAMNWVRQAPGKGLEWVARIRSKYNNYATYYADSVKDRFTISRDDSQSILYLQMNNLKTEDTAMYYCVRHGNFGNSYVSWFAYWGQGTLVTVSADYKDDDDK
heavy 2: QVQLVQSGAEVKKPGASVKVSCKASGYTFTDYEMHWIRQPPGQGLEWIGAIDPKTGDTAYSQKFKGRVTLTADKSTSTAYMELSSLTSEDTAVYYCTRFYSYTYWGQGTLVTVSSASTKGPSVFPLAPSSKSTSGGTAALGCLVKDYFPEPVTVSWNSGALTSGVHTFPAVLQSSGLYSLSSVVTVPSSSLGTQTYICNVNHKPSNTKVDKKVEPKSCDKTHTCPPCPAPEAAGGPSVFLFPPKPKDTLMISRTPEVTCVVVDVSHEDPEVKFNWYVDGVEVHNAKTKPREEQYASTYRVVSVLTVLHQDWLNGKEYKCKVSNKALPAPIEKTISKAKGQPREPQVCTLPPSRDELTKNQVSLWCLVKGFYPSDIAVEWESNGQPENNYKTTPPVLDSDGSFFLYSKLTVDKSRWQQGNVFSCSVMHEALHNHYTQKSLSLSPHHHHHHHH
light: DIVMTQSPLSLPVTPGEPASISCRSSQSLVHSNRNTYLHWYQQKPGQAPRLLIYKVSNRFSGVPDRFSGSGSGTDFTLKISRVEAEDVGVYYCSQNTHVPPTFGQGTKLEIKRTVAAPSVFIFPPSDEQLKSGTASVVCLLNNFYPREAKVQWKVDNALQSGNSQESVTEQDSKDSTYSLSSTLTLSKADYEKHKVYACEVTHQGLSSPVTKSFNRGEC
notes: Anti-GPC3 IgG backbone with silent Fc and knobs-into-holes CH3; also called GPC ERY10-1
  binding result: binds

Reference: patent US20220041756A1 (Chugai, published 2022)
